Patent US20220119472A1 (ORIONIS BIOSCIENCES, published 2022)

What was measured:
[1] = biological target: T1, recombinant His6-tagged extracellular domain of human Clec4C (C-type lectin domain family 4, member C) (human, UniProt Q8WTT0 44-213); assay: ELISA, antigen-coated vs uncoated blocked wells
T1 construct: Same antigen for immunisation, panning and ELISA; also called His-Clec4C(EC); pMET7-SIgK-His-Clec4C(EC)
T1 sequence: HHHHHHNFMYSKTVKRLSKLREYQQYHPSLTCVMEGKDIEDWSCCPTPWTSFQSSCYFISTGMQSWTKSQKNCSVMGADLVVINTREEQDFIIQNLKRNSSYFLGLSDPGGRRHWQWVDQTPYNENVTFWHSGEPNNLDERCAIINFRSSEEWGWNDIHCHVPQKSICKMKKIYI
From the text: (§1) In total, 190 colonies from rounds 1 and 2 were randomly selected and analyzed by ELISA for the presence of antigen-specific VHH in their periplasmic extracts (ELISA using crude periplasmic extracts from TG1 cultures including soluble VHH). The antigen used for ELISA screening was the same as the one used for immunization, using uncoated blocked wells as negative control.

[2] = biological target: T1, recombinant His6-tagged extracellular …; assay: ELISA, TG1 periplasmic extract on coated antigen
From the text: as §1

| Binder | ELISA ratio coated/uncoated [1] | ELISA coated [2] |
| --- | --- | --- |
| 1CL48 (VHH, pMECS VHH-HA-His6; TG1 periplasmic extract) VHH: QVQLQESGGGLVQPGGSLRLSCVGSGSTFRHHAMAWFRQTAGKEREFVSAINNHGTKTRYSDSVRGRFTISRDNDENMVYLQMDNLRPEDTAVYSCAAGPLVDYLETVPVVYTYWGQGTQVTVSS | 7.83 | 3.85 |
| 1CL21 (VHH, pMECS VHH-HA-His6; TG1 periplasmic extract) VHH: QVQLQESGGGLVRPGGSLRLSCVGSGSTFRHHAMAWFRQTTGKEREFVSAINDHGTKTRYSDSVRGRFTISRDNDENMVYLQMDNLRPEDTAVYSCAAGPLVDYLETVPVVYTYWGQGTQVTVSS | 11.1 | 3.79 |
| 2CL4 (VHH, pMECS VHH-HA-His6; TG1 periplasmic extract) VHH: QVQLQESGGGLVQPGGSLRISCAGSGSTFRHHAMAWFRQTAGKEREFVSAINDHGTKTRYSDSVRGRFTISRDNDENMVYLQMDNLRSEDTANYTCAAGPLVDYLETVPVVYTYWGQGTQVTVSS | 31.3 | 2.8 |
| 2CL8 (VHH, pMECS VHH-HA-His6; TG1 periplasmic extract) VHH: QVQLQESGGGLVQPGGSLKLSCAGSGSTFRHHALAWFRQTAEKEREFVSAINDHGTKTRYSDSVRGRFTISRDNDGNMVYLQMDNLRPEDTAVYSCAAGPLVDYLETVPVVYTYWGQGTQVTVSS | 15.7 | 1.81 |
| 1CL82 (VHH, pMECS VHH-HA-His6; TG1 periplasmic extract) VHH: QVQLQESGGGSVQAGDSLRLSCVAPGREISSPAMGWFRQAPGKEREFVATINWSSGATLTADSVKGRFTIFKDVEKNTVYLQMNSLRPEDTAVYSCAAGATGVFRIARAYSYWGQGTQVTVSS | 6.23 | 3.01 |
| 2CL72 (VHH, pMECS VHH-HA-His6; TG1 periplasmic extract) VHH: QVQLQESGGGLVQPGGSLKLSCAASGSTFRHHAMAWFRQTPGKEREFVSAINDHGDRTKYLDSVRGRFTISRDNTDNMVYLQMSDLRPEDTAVYSCAAGPLVDYLETTPLVYTYWGQGTQVTVSS | 21.5 | 3.63 |
| 1CL25 (VHH, pMECS VHH-HA-His6; TG1 periplasmic extract) VHH: QVQLQESGGGLVQPGGSLRLSCAASGSTFRHHAMAWFRQTPGKEREFVSAINDHGDRTKYLDSVRGRFTISRDNTDNMVYLLMSDLRPEDTAVYSCAAGPLVDYLETTPLVYTYWGQGTQVTVSS | 5.81 | 4 |
| 2CL41 (VHH, pMECS VHH-HA-His6; TG1 periplasmic extract) VHH: QVQLQESGGGLVQAGGSLRLSCAASGSTFRHHAMAWFRQTPGKEREFVSAINDHGDRTKYLDSVRGRFTISRDNTDNMVYLQMSDLRTEDTAVYTCAAGPLVDYLETTPLVYTYWGQGTQVTVSS | 20.9 | 4 |
| 2CL78 (VHH, pMECS VHH-HA-His6; TG1 periplasmic extract) VHH: QVQLQESGGGVVQPGGSLKLSCAASGSTFRHHAMAWFRQTPGKEREFVSAINDHGDRTKYLDSVRGRFTISRDDTDNMVYLQMSDLRTEDTAVYTCAAGPLVDYLETTPLVYTYWGQGTQVTVSS | 32.7 | 3.75 |
| 2CL87 (VHH, pMECS VHH-HA-His6; TG1 periplasmic extract) VHH: QVQLQESGGGLVQPGGSLRLSCAGSGSTFRHHAMAWFRQTPGKEREFVSAINDHGDRTKYTDSVRGRFTISRDNTDNMVYLQMSDLRPEDTAVYSCAAGPLVDYLETTPLVYTYWGQGTQVTVSS | 11.5 | 1.62 |
| 2CL88 (VHH, pMECS VHH-HA-His6; TG1 periplasmic extract) VHH: QVQLQESGGGLVQPGGSLKLSCTGSGSTFRHHAMAWFRQTPGKEREFVAAINDHGDRTKYLDSVRGRFTISRDNTDNMVYLQMSDLRPEDTANYSCAAGPLVDYLETTPLVYTYWGQGTQVTVSS | 12.2 | 4 |
| 2CL90 (VHH, pMECS VHH-HA-His6; TG1 periplasmic extract) VHH: QVQLQESGGGLVQAGGSLRLSCAASGSTFRHHAMAWFRQTPGKGREFVSAINDHGDRTKYLDSVRGRFTISRDNTDNMVYLQMSDLRPEDTAVYSCAAGPLVDYLETTPLVYTYWGQGTQVTVSS | 7.54 | 4 |
| 2CL95 (VHH, pMECS VHH-HA-His6; TG1 periplasmic extract) VHH: QVQLQESGGGLVQPGGSLKLSCAGSGSTFKHHAMAWFRHTPGKEREFVSAINDHGDRTKYSDSVRGRFTIARDNTDNMVYLQMDDLLPEDTANYTCAAGPLVDYLETTPLVYTYWGQGTQVTVSS | 23.2 | 4 |
| 1CL54 (VHH, pMECS VHH-HA-His6; TG1 periplasmic extract) VHH: QVQLQESGGGLAQAGASLRLSCAGSGNNFEHYAVAWFRQDAPGKERDFVAAIRDYGDRTRYDDSVKGRFTISRDNAKSMVYLEMNNLKPKDAAVYYCAAGPLNDYLEVTPLVYTYWGQGTQVTVSS | 17 | 1.88 |
| 2CL52 (VHH, pMECS VHH-HA-His6; TG1 periplasmic extract) VHH: QVQLQESGGGLAQAGASLRLSCAGSGNNFEHYAVAWFRQEAPGKERDFVAAIRDYGDRTRYADSVKGRFTISRDNAKSMVYLEMNNLKPEDTAVYYCTAGPLNDYLEVTPLVYTYWGQGTQVTVSS | 7.07 | 1.65 |
| 1CL2 (VHH, pMECS VHH-HA-His6; TG1 periplasmic extract) VHH: QVQLQESGGGLVQAGDSLRLSCAASGDTFSMYAMGWFRQAPGKEREFVAAISRSGGSTDYRDSVKGRFTISRDNDLNAGYLQMNSLKPEDTAVYYCALRLTFSTTTAYTGELQYPYWGQGTQVTVSS | 4.36 | 3.74 |
| 1CL32 (VHH, pMECS VHH-HA-His6; TG1 periplasmic extract) VHH: QVQLQESGGGLVQAGDSLRLSCAASGDTFSMYTMGWFRQAPGKEREFVAAISRSGGSTNYRDSVKGRFTISRDNDLNAGYLQMNSLKPEDTAVYYCALRLTFSTTTAYTGELQYPYWGQGTQVTVSS | 9.9 | 3.22 |
| 2CL58 (VHH, pMECS VHH-HA-His6; TG1 periplasmic extract) VHH: QVQLQESGGGLVQAGDSLRLSCAASGDTFSMYAMGWFRQAPGKEREFVAAISRSGSSTNYRDSVKGRFTISRDNDLNAGYLQMNSLKPEDTAVYYCALRLTFSTTTTYTGELQYPYWGQGTQVTVSS | 4.66 | 2.24 |
| 2CL73 (VHH, pMECS VHH-HA-His6; TG1 periplasmic extract) VHH: QVQLQESGGGLVQAGDSLRLSCAASGNTFSMYAMGWFRQAPGKEREFVAAISRSGGSTNYRDSVKGRFTISRDNDLNAGYLQMNNLKPEDTAVYYCALRLTFSTTDAYTGKLQYPYWGQGTQVTVSS | 4.93 | 2.43 |
| 2CL43 (VHH, pMECS VHH-HA-His6; TG1 periplasmic extract) VHH: QVQLQESGGGTVQPGESLRLSCEVSTDTFSSLAMAWFRQATGKDREFVAAISWSGASTVYGDSVKGRFTMTRDHPKKMVYLQMDNLKPEDTAVYYCAGDLDGRTWHGDDLEYDYWGQGTQVTVSS | 12.1 | 2.64 |
| 2CL82 (VHH, pMECS VHH-HA-His6; TG1 periplasmic extract) VHH: QVQLQESGGGLVQPGGSLRLSCEVSTDTFSSLAMAWFRQATGKEREFVAAISWSGASTVYGDSVKGRFTMTRDHPKKMVYLQMDNLKPEDTAVYYCAGDLDGRTWHGDDLEYDYWGQGTQVTVSS | 9.74 | 2.68 |
